Reference: US20150017095A1 (AbbVie / Abbott, published 2015)

Assays:
[1] = target: T1, Recombinant Human IL-1β (human, UniProt P01584 117-269); test: BIACORE SPR, DVD-Ig captured, antigen in flow (N-terminal VD)
T1 construct: also called IL-1b; IL-1B
Protocol: (§1) The BIACORE assay (Biacore, Inc, Piscataway, N.J.) determines the affinity of antibodies or DVD-Ig with kinetic measurements of on-rate and off-rate constants. […] All chemicals are obtained from Biacore® AB (Uppsala, Sweden) or otherwise from a different source as described in the text. For example, approximately 5000 RU of goat anti-mouse IgG, (Fcγ), fragment specific polyclonal antibody (Pierce Biotechnology Inc, Rockford, Ill.) diluted in 10 mM sodium acetate (pH 4.5) is directly immobilized across a CM5 research grade biosensor chip using a standard amine coupling kit according to manufacturer's instructions and procedures at 25 μg/ml. Unreacted moieties on the biosensor surface are blocked with ethanolamine. Modified carboxymethyl dextran surface in flowcell 2 and 4 is used as a reaction surface. Unmodified carboxymethyl dextran without goat anti-mouse IgG in flow cell 1 and 3 is used as the reference surface. For kinetic analysis, rate equations derived from the 1:1 Langmuir binding model are fitted simultaneously to association and dissociation phases of all eight injections (using global fit analysis) with the use of Biaevaluation 4.0.1 software. Purified antibodies or DVD-Ig are diluted in HEPES-buffered saline for capture across goat anti-mouse IgG specific reaction surfaces. Antibodies or DVD-Ig to be captured as a ligand (25 μg/m) are injected over reaction matrices at a flow rate of 5 μl/min. The association and dissociation rate constants, kₒₙ (M⁻¹s⁻¹) and koff (s⁻¹) are determined under a continuous flow rate of 25 μl/min. Rate constants are derived by making kinetic binding measurements at different antigen concentrations ranging from 10-200 nM. The equilibrium dissociation constant (M) of the reaction between antibodies or DVD-Igs and the target antigen is then calculated from the kinetic rate constants by the following formula: KD=koff/kₒₙ. Binding is recorded as a function of time and kinetic rate constants are calculated.

[2] = target: T1, Recombinant Human IL-1β; test: direct bind ELISA, antigen coated on plate (N-terminal VD)
Protocol: (§2) Enzyme Linked Immunosorbent Assays to screen for antibodies that bind a desired target antigen were performed as follows. High bind ELISA plates (Corning Costar #3369, Acton, Mass.) were coated with 100 μL/well of 10 μg/ml of desired target antigen (R&D Systems, Minneapolis, Minn.) or desired target antigen extra-cellular domain/FC fusion protein (R&D Systems, Minneapolis, Minn.) or monoclonal mouse anti-polyHistidine antibody (R&D Systems # MAB050, Minneapolis, Minn.) in phosphate buffered saline (10×PBS, Abbott Bioresearch Center, Media Prep# MPS-073, Worcester, Mass.) overnight at 4° C. Plates were washed four times with PBS containing 0.02% Tween 20. Plates were blocked by the addition of 300 μL/well blocking solution (non-fat dry milk powder, various retail suppliers, diluted to 2% in PBS) for ½ hour at room temperature. Plates were washed four times after blocking with PBS containing 0.02% Tween 20.
(§3) Plates were washed 4 times with PBS containing 0.02% Tween 20.
(§4) One hundred microliters of enhanced TMB solution (Neogen Corp. #308177, K Blue, Lexington, Ky.) was added to each well and incubated for 10 minutes at room temperature. The reaction was stopped by the addition of 50 μL 1N sulphuric acid.

[3] = target: T1, Recombinant Human IL-1β; test: cell-based or functional assay
[4] = target: T2, Recombinant Human VEGF (human, UniProt P15692-4 27-191); test: BIACORE SPR, DVD-Ig captured, antigen in flow (N-terminal VD)
T2 construct: also called VEGF165
Protocol: as §1

[5] = target: T2, Recombinant Human VEGF; test: direct bind ELISA, antigen coated on plate (N-terminal VD)
Protocol: as §2, §3, §4

[6] = target: T3, Recombinant Human β-NGF (human, UniProt P01138 122-239, limits assumed); test: direct bind ELISA, antigen coated on plate
Protocol: as §2, §3, §4

[7] = target: T3, Recombinant Human β-NGF; test: BIACORE SPR, antibody captured, antigen in flow
Protocol: as §1

[8] = target: T3, Recombinant Human β-NGF; test: BIACORE SPR, antibody captured, antigen in flow; Biacore, antibody captured, 25 C, HBS-EP
Protocol: as §1, with “For kinetic analysis, rate equations derived from the 1:1 Langmuir binding model are fitted simultaneously to association and dissociation phases of all eight injections (using global fit analysis) with the use of Biaevaluation 4.0.1 software. Purified antibodies or DVD-Ig are diluted in HEPES-buffered saline for capture across goat anti-mouse IgG specific reaction surfaces. Antibodies or DVD-Ig to be captured as a ligand (25 μg/m) are injected over reaction matrices at a flow rate of 5 μl/min.” left out, “Rate constants are derived by making kinetic binding measurements at different antigen concentrations ranging from 10-200 nM.” left out

[9] = target: T1, Recombinant Human IL-1β; test: direct bind ELISA, antigen coated on plate
Protocol: as §2, §3, §4

[10] = target: T1, Recombinant Human IL-1β; test: BIACORE SPR, antibody captured, antigen in flow
Protocol: as §1

[11] = target: T3, Recombinant Human β-NGF; test: BIACORE SPR, DVD-Ig captured, antigen in flow (N-terminal VD)
Protocol: as §1

[12] = target: T3, Recombinant Human β-NGF; test: direct bind ELISA, antigen coated on plate (N-terminal VD)
Protocol: as §2, §3, §4

[13] = target: T1, Recombinant Human IL-1β; test: direct bind ELISA, antigen coated on plate (C-terminal VD)
Protocol: as §2, §3, §4

[14] = target: T2, Recombinant Human VEGF; test: as above
Protocol: as §2, §3, §4

[15] = target: T2, Recombinant Human VEGF; test: BIACORE SPR, DVD-Ig captured, antigen in flow (C-terminal VD)
Protocol: as §1

T3 sequence (P01138 122-239 limits assumed): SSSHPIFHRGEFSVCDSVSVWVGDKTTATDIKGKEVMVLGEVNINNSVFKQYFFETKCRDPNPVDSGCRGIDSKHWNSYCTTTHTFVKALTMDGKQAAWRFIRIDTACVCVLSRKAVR
T2 sequence (P15692 other isoform, or with tags, fused parts or gaps limits assumed): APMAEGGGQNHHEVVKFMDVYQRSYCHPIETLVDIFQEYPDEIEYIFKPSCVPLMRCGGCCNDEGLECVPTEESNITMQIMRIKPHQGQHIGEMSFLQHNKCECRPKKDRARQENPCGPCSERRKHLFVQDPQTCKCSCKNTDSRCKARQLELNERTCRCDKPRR

B1: DVD158 (IL-1b / PGE2 DVD-Ig) (bispecific antibody)
VH: QVQLVESGGGVVQPGRSLRLSCAASGFTFSVYGMNWVRQAPGKGLEWVAIIWYDGDNQYYADSVKGRFTISRDNSKNTLYLQMNGLRAEDTAVYYCARDLRTGPFDYWGQGTLVTVSSASTKGPEVQLVQSGAEVKKPGASVKVSCKASGYTFTKYWLGWVRQAPGQGLEWMGDIYPGYDYTHYNEKFKDRVTLTTDTSTSTAYMELRSLRSDDTAVYYCARSDGSSTYWGQGTLVTVSS
VL: EIVLTQSPDFQSVTPKEKVTITCRASQSIGSSLHWYQQKPDQSPKLLIKYASQSFSGVPSRFSGSGSGTDFTLTINSLEAEDAAAYYCHQSSSLPFTFGPGTKVDIKRTVAAPDVLMTQTPLSLPVTPGEPASISCTSSQNIVHSNGNTYLEWYLQKPGQSPQLLIYKVSNRFSGVPDRFSGSGSGTDFTLKISRVEAEDVGVYYCFQVSHVPYTFGGGTKVEIKR
notes: Outer domain is AB032 (IL-1b), inner domain is AB048 (PGE2); also called VD158H; VD158L
Kd [1]: 0.0387 nM | koff [1]: 3.84e-05 s⁻¹ | kon [1]: 992000 M⁻¹ s⁻¹ | EC50 [2]: 17.6 nM | N-terminal VD IL-1β Neutralization Assay EC50 nM (IL-8 release by MRC5 cells) [3]: 0.11 nM

B2: DVD162 (VEGF / PGE2 DVD-Ig) (bispecific antibody)
VH: EVQLVESGGGLVQPGGSLRLSCAASGYTFTNYGMNWVRQAPGKGLEWVGWINTYTGEPTYAADFKRRFTFSLDTSKSTAYLQMNSLRAEDTAVYYCAKYPHYYGSSHWYFDVWGQGTLVTVSSASTKGPEVQLVQSGAEVKKPGASVKVSCKASGYTFTKYWLGWVRQAPGQGLEWMGDIYPGYDYTHYNEKFKDRVTLTTDTSTSTAYMELRSLRSDDTAVYYCARSDGSSTYWGQGTLVTVSS
VL: DIQMTQSPSSLSASVGDRVTITCSASQDISNYLNWYQQKPGKAPKVLIYFTSSLHSGVPSRFSGSGSGTDFTLTISSLQPEDFATYYCQQYSTVPWTFGQGTKVEIKRTVAAPDVLMTQTPLSLPVTPGEPASISCTSSQNIVHSNGNTYLEWYLQKPGQSPQLLIYKVSNRFSGVPDRFSGSGSGTDFTLKISRVEAEDVGVYYCFQVSHVPYTFGGGTKVEIKR
notes: Outer domain is AB014 (VEGF), inner domain is AB048 (PGE2); also called VD162H; VD162L
Kd [4]: 0.266 nM | koff [4]: 0.000131 s⁻¹ | kon [4]: 490000 M⁻¹ s⁻¹ | EC50 [5]: 1.79 nM

B3: AB020 anti-NGF parent antibody (antibody, human IgG1, V domains shown)
VH: QVQLQESGPGLVKPSETLSLTCTVSGFSLIGYDLNWIRQPPGKGLEWIGIIWGDGTTDYNSAVKSRVTISKDTSKNQFSLKLSSVTAADTAVYYCARGGYWYATSYYFDYWGQGTLVTVSS
VL: DIQMTQSPSSLSASVGDRVTITCRASQSISNNLNWYQQKPGKAPKLLIYYTSRFHSGVPSRFSGSGSGTDFTFTISSLQPEDIATYYCQQEHTLPYTFGQGTKLEIKR
EC50 [6]: 2.59 nM | koff [7]: 0.000112 s⁻¹ | kon [7]: 261000 M⁻¹ s⁻¹ | Kd [8]: 0.428 nM

B4: AB032 anti-IL-1b parent antibody (antibody, human IgG1, V domains shown)
VH: QVQLVESGGGVVQPGRSLRLSCAASGFTFSVYGMNWVRQAPGKGLEWVAIIWYDGDNQYYADSVKGRFTISRDNSKNTLYLQMNGLRAEDTAVYYCARDLRTGPFDYWGQGTLVTVSS
VL: EIVLTQSPDFQSVTPKEKVTITCRASQSIGSSLHWYQQKPDQSPKLLIKYASQSFSGVPSRFSGSGSGTDFTLTINSLEAEDAAAYYCHQSSSLPFTFGPGTKVDIKR
EC50 [9]: 5.27 nM | Kd [10]: 0.0131 nM

B5: DVD164 (NGF / PGE2 DVD-Ig) (bispecific antibody)
VH: QVQLQESGPGLVKPSETLSLTCTVSGFSLIGYDLNWIRQPPGKGLEWIGIIWGDGTTDYNSAVKSRVTISKDTSKNQFSLKLSSVTAADTAVYYCARGGYWYATSYYFDYWGQGTLVTVSSASTKGPEVQLVQSGAEVKKPGASVKVSCKASGYTFTKYWLGWVRQAPGQGLEWMGDIYPGYDYTHYNEKFKDRVTLTTDTSTSTAYMELRSLRSDDTAVYYCARSDGSSTYWGQGTLVTVSS
VL: DIQMTQSPSSLSASVGDRVTITCRASQSISNNLNWYQQKPGKAPKLLIYYTSRFHSGVPSRFSGSGSGTDFTFTISSLQPEDIATYYCQQEHTLPYTFGQGTKLEIKRTVAAPDVLMTQTPLSLPVTPGEPASISCTSSQNIVHSNGNTYLEWYLQKPGQSPQLLIYKVSNRFSGVPDRFSGSGSGTDFTLKISRVEAEDVGVYYCFQVSHVPYTFGGGTKVEIKR
notes: Outer domain is AB020 (NGF), inner domain is AB048 (PGE2); also called VD164H; VD164L
Kd [11]: 0.248 nM | koff [11]: 0.000103 s⁻¹ | kon [11]: 414000 M⁻¹ s⁻¹ | EC50 [12]: 1.21 nM

B6: DVD157 (PGE2 / IL-1b DVD-Ig) (bispecific antibody)
VH: EVQLVQSGAEVKKPGASVKVSCKASGYTFTKYWLGWVRQAPGQGLEWMGDIYPGYDYTHYNEKFKDRVTLTTDTSTSTAYMELRSLRSDDTAVYYCARSDGSSTYWGQGTLVTVSSASTKGPQVQLVESGGGVVQPGRSLRLSCAASGFTFSVYGMNWVRQAPGKGLEWVAIIWYDGDNQYYADSVKGRFTISRDNSKNTLYLQMNGLRAEDTAVYYCARDLRTGPFDYWGQGTLVTVSS
VL: DVLMTQTPLSLPVTPGEPASISCTSSQNIVHSNGNTYLEWYLQKPGQSPQLLIYKVSNRFSGVPDRFSGSGSGTDFTLKISRVEAEDVGVYYCFQVSHVPYTFGGGTKVEIKRTVAAPEIVLTQSPDFQSVTPKEKVTITCRASQSIGSSLHWYQQKPDQSPKLLIKYASQSFSGVPSRFSGSGSGTDFTLTINSLEAEDAAAYYCHQSSSLPFTFGPGTKVDIKR
notes: Outer domain is AB048 (PGE2), inner domain is AB032 (IL-1b); also called VD157H; VD157L
EC50 [13]: 2480 nM | C-terminal VD IL-1β Neutralization Assay EC50 nM (IL-8 release by MRC5 cells) [3]: 3.22 nM

B7: DVD161 (PGE2 / VEGF DVD-Ig) (bispecific antibody)
VH: EVQLVQSGAEVKKPGASVKVSCKASGYTFTKYWLGWVRQAPGQGLEWMGDIYPGYDYTHYNEKFKDRVTLTTDTSTSTAYMELRSLRSDDTAVYYCARSDGSSTYWGQGTLVTVSSASTKGPEVQLVESGGGLVQPGGSLRLSCAASGYTFTNYGMNWVRQAPGKGLEWVGWINTYTGEPTYAADFKRRFTFSLDTSKSTAYLQMNSLRAEDTAVYYCAKYPHYYGSSHWYFDVWGQGTLVTVSS
VL: DVLMTQTPLSLPVTPGEPASISCTSSQNIVHSNGNTYLEWYLQKPGQSPQLLIYKVSNRFSGVPDRFSGSGSGTDFTLKISRVEAEDVGVYYCFQVSHVPYTFGGGTKVEIKRTVAAPDIQMTQSPSSLSASVGDRVTITCSASQDISNYLNWYQQKPGKAPKVLIYFTSSLHSGVPSRFSGSGSGTDFTLTISSLQPEDFATYYCQQYSTVPWTFGQGTKVEIKR
notes: Outer domain is AB048 (PGE2), inner domain is AB014 (VEGF); also called VD161H; VD161L
EC50 [14]: 391 nM | Kd [15]: 0.755 nM | koff [15]: 0.000209 s⁻¹ | kon [15]: 277000 M⁻¹ s⁻¹
